Assay results taken from US20180155451A1 (published 2018).

How the values were obtained:
[1] = target: T1, FcγRIa extracellular domain with C-terminal His tag (human, UniProt P12314 16-292); test: SPR Biacore; relative binding to FcγRIa divided by that to FcγRIIb
T1 construct: extracellular domain; Soluble receptor expressed in FreeStyle293 cells and used as analyte in Biacore; also called FcgRI; 1a; not shown: His tag at the C terminus

[2] = target: T1, FcγRIa extracellular domain with …; test: SPR Biacore, relative binding amount
[3] = target: T2, FcγRIIb extracellular domain with C-terminal His tag (human, UniProt P31994 43-217); test: SPR Biacore, relative binding amount
T2 construct: extracellular domain; Soluble receptor expressed in FreeStyle293 cells and used as analyte in Biacore; also called FcgRIIb; 2b; not shown: His tag at the C terminus
T2 sequence (looked up): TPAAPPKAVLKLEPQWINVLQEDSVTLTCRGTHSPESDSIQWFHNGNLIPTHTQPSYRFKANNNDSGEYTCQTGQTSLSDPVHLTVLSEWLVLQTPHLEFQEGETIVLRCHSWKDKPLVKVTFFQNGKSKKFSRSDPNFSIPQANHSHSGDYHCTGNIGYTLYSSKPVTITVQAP

T1 sequence (P12314 16-292): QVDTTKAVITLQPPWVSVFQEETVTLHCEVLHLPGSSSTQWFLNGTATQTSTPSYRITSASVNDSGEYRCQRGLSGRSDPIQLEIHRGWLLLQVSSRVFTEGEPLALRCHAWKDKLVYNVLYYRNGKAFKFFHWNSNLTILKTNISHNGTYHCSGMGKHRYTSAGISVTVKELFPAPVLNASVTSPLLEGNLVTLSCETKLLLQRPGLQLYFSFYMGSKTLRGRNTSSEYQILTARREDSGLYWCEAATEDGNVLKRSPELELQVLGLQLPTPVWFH

| Binder | Ia/IIb He_1a/2b [1] | He/Con_1a [2] | He/Con_2b [3] |
| --- | --- | --- | --- |
| heterodimerized antibody GpH7-A5/GpH7-B3 variant S298_05P/GpL16-k0 (antibody, human IgG1, kappa, Substitution in only one H chain (GpH7-B3 side); also called He Ab) heavy 1: not shown heavy 2: not shown light: DIVMTQSPLSLPVTPGEPASISCQASESLVHSNRNTYLHWYLQKPGQSPQLLIYKVSNRFSGVPDRFSGSGSGTDFTLKISRVEAEDVGVYYCSQNTHVPPTFGQGTKVEIERTVAAPSVFIFPPSDEQLKSGTASVVCLLNNFYPREAKVQWKVDNALQSGNSQESVTEQDSKDSTYSLSSTLTLSKADYEKHKVYACEVTHQGLSSPVTKSFNRGEC | 7.7 ratio of He/Con_1a to He/Con_2b | 91.6 % of GpH7-A5/GpH7-B3/GpL16-k0 (=100) | 11.9 % of GpH7-A5/GpH7-B3/GpL16-k0 (=100) |
| heterodimerized antibody GpH7-A5/GpH7-B3 variant Y296_13S/GpL16-k0 (antibody, human IgG1, kappa, Substitution in only one H chain (GpH7-B3 side); also called He Ab) heavy 1: not shown heavy 2: not shown light: DIVMTQSPLSLPVTPGEPASISCQASESLVHSNRNTYLHWYLQKPGQSPQLLIYKVSNRFSGVPDRFSGSGSGTDFTLKISRVEAEDVGVYYCSQNTHVPPTFGQGTKVEIERTVAAPSVFIFPPSDEQLKSGTASVVCLLNNFYPREAKVQWKVDNALQSGNSQESVTEQDSKDSTYSLSSTLTLSKADYEKHKVYACEVTHQGLSSPVTKSFNRGEC | 1.22 ratio of He/Con_1a to He/Con_2b | 105 % of GpH7-A5/GpH7-B3/GpL16-k0 (=100) | 86.3 % of GpH7-A5/GpH7-B3/GpL16-k0 (=100) |
| heterodimerized antibody GpH7-A5/GpH7-B3 variant Y296_12R/GpL16-k0 (antibody, human IgG1, kappa, Substitution in only one H chain (GpH7-B3 side); also called He Ab) heavy 1: not shown heavy 2: not shown light: DIVMTQSPLSLPVTPGEPASISCQASESLVHSNRNTYLHWYLQKPGQSPQLLIYKVSNRFSGVPDRFSGSGSGTDFTLKISRVEAEDVGVYYCSQNTHVPPTFGQGTKVEIERTVAAPSVFIFPPSDEQLKSGTASVVCLLNNFYPREAKVQWKVDNALQSGNSQESVTEQDSKDSTYSLSSTLTLSKADYEKHKVYACEVTHQGLSSPVTKSFNRGEC | 1.34 ratio of He/Con_1a to He/Con_2b | 106 % of GpH7-A5/GpH7-B3/GpL16-k0 (=100) | 79.5 % of GpH7-A5/GpH7-B3/GpL16-k0 (=100) |
| heterodimerized antibody GpH7-A5/GpH7-B3 variant Y296_07I/GpL16-k0 (antibody, human IgG1, kappa, Substitution in only one H chain (GpH7-B3 side); also called He Ab) heavy 1: not shown heavy 2: not shown light: DIVMTQSPLSLPVTPGEPASISCQASESLVHSNRNTYLHWYLQKPGQSPQLLIYKVSNRFSGVPDRFSGSGSGTDFTLKISRVEAEDVGVYYCSQNTHVPPTFGQGTKVEIERTVAAPSVFIFPPSDEQLKSGTASVVCLLNNFYPREAKVQWKVDNALQSGNSQESVTEQDSKDSTYSLSSTLTLSKADYEKHKVYACEVTHQGLSSPVTKSFNRGEC | 1.24 ratio of He/Con_1a to He/Con_2b | 104 % of GpH7-A5/GpH7-B3/GpL16-k0 (=100) | 84.3 % of GpH7-A5/GpH7-B3/GpL16-k0 (=100) |
| heterodimerized antibody GpH7-A5/GpH7-B3 variant Y296_19Q/GpL16-k0 (antibody, human IgG1, kappa, Substitution in only one H chain (GpH7-B3 side); also called He Ab) heavy 1: not shown heavy 2: not shown light: DIVMTQSPLSLPVTPGEPASISCQASESLVHSNRNTYLHWYLQKPGQSPQLLIYKVSNRFSGVPDRFSGSGSGTDFTLKISRVEAEDVGVYYCSQNTHVPPTFGQGTKVEIERTVAAPSVFIFPPSDEQLKSGTASVVCLLNNFYPREAKVQWKVDNALQSGNSQESVTEQDSKDSTYSLSSTLTLSKADYEKHKVYACEVTHQGLSSPVTKSFNRGEC | 1.25 ratio of He/Con_1a to He/Con_2b | 112 % of GpH7-A5/GpH7-B3/GpL16-k0 (=100) | 89.3 % of GpH7-A5/GpH7-B3/GpL16-k0 (=100) |
| heterodimerized antibody GpH7-A5/GpH7-B3 variant S298_04F/GpL16-k0 (antibody, human IgG1, kappa, Substitution in only one H chain (GpH7-B3 side); also called He Ab) heavy 1: not shown heavy 2: not shown light: DIVMTQSPLSLPVTPGEPASISCQASESLVHSNRNTYLHWYLQKPGQSPQLLIYKVSNRFSGVPDRFSGSGSGTDFTLKISRVEAEDVGVYYCSQNTHVPPTFGQGTKVEIERTVAAPSVFIFPPSDEQLKSGTASVVCLLNNFYPREAKVQWKVDNALQSGNSQESVTEQDSKDSTYSLSSTLTLSKADYEKHKVYACEVTHQGLSSPVTKSFNRGEC | 1.67 ratio of He/Con_1a to He/Con_2b | 109 % of GpH7-A5/GpH7-B3/GpL16-k0 (=100) | 65.4 % of GpH7-A5/GpH7-B3/GpL16-k0 (=100) |
| heterodimerized antibody GpH7-A5/GpH7-B3 variant Y296_03V/GpL16-k0 (antibody, human IgG1, kappa, Substitution in only one H chain (GpH7-B3 side); also called He Ab) heavy 1: not shown heavy 2: not shown light: DIVMTQSPLSLPVTPGEPASISCQASESLVHSNRNTYLHWYLQKPGQSPQLLIYKVSNRFSGVPDRFSGSGSGTDFTLKISRVEAEDVGVYYCSQNTHVPPTFGQGTKVEIERTVAAPSVFIFPPSDEQLKSGTASVVCLLNNFYPREAKVQWKVDNALQSGNSQESVTEQDSKDSTYSLSSTLTLSKADYEKHKVYACEVTHQGLSSPVTKSFNRGEC | 1.31 ratio of He/Con_1a to He/Con_2b | 104 % of GpH7-A5/GpH7-B3/GpL16-k0 (=100) | 79.3 % of GpH7-A5/GpH7-B3/GpL16-k0 (=100) |
| heterodimerized antibody GpH7-A5/GpH7-B3 variant Y296_11K/GpL16-k0 (antibody, human IgG1, kappa, Substitution in only one H chain (GpH7-B3 side); also called He Ab) heavy 1: not shown heavy 2: not shown light: DIVMTQSPLSLPVTPGEPASISCQASESLVHSNRNTYLHWYLQKPGQSPQLLIYKVSNRFSGVPDRFSGSGSGTDFTLKISRVEAEDVGVYYCSQNTHVPPTFGQGTKVEIERTVAAPSVFIFPPSDEQLKSGTASVVCLLNNFYPREAKVQWKVDNALQSGNSQESVTEQDSKDSTYSLSSTLTLSKADYEKHKVYACEVTHQGLSSPVTKSFNRGEC | 1.44 ratio of He/Con_1a to He/Con_2b | 105 % of GpH7-A5/GpH7-B3/GpL16-k0 (=100) | 72.8 % of GpH7-A5/GpH7-B3/GpL16-k0 (=100) |
| heterodimerized antibody GpH7-A5/GpH7-B3 variant Y296_05P/GpL16-k0 (antibody, human IgG1, kappa, Substitution in only one H chain (GpH7-B3 side); also called He Ab) heavy 1: not shown heavy 2: not shown light: DIVMTQSPLSLPVTPGEPASISCQASESLVHSNRNTYLHWYLQKPGQSPQLLIYKVSNRFSGVPDRFSGSGSGTDFTLKISRVEAEDVGVYYCSQNTHVPPTFGQGTKVEIERTVAAPSVFIFPPSDEQLKSGTASVVCLLNNFYPREAKVQWKVDNALQSGNSQESVTEQDSKDSTYSLSSTLTLSKADYEKHKVYACEVTHQGLSSPVTKSFNRGEC | 2.61 ratio of He/Con_1a to He/Con_2b | 95.6 % of GpH7-A5/GpH7-B3/GpL16-k0 (=100) | 36.6 % of GpH7-A5/GpH7-B3/GpL16-k0 (=100) |
